Test results: PMC12532034 (Cancer immunology research, 2025)

Biological target: T1, GST-Rb 379–928 (UniProt P06400 379-928)
T1 sequence (looked up): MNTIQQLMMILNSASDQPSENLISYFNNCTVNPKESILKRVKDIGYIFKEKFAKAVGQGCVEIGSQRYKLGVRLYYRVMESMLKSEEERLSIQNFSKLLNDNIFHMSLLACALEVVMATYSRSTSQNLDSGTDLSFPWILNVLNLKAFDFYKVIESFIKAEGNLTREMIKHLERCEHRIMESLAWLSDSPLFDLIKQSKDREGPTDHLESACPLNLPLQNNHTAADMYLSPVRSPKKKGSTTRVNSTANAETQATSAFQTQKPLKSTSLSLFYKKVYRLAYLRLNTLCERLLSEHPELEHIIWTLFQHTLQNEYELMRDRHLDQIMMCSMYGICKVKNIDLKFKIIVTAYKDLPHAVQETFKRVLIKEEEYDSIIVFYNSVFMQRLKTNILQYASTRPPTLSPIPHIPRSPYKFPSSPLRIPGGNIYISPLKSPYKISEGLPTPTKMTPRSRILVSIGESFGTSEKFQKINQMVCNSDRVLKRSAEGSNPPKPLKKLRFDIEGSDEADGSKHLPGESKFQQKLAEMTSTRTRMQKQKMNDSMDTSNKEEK
Experiment: AlphaScreen or HTRF

B1: MBP-E2F1 (natural protein)
chain: not shown
binding result: binds
